Source: the supplement of paper PMC7125110
± gives the standard error. For part of these data: Variants at the floor of the assay were thinned out.

B1: glmS ribozyme (parent)
chain: AUAAAAGCGCCAGAACUACAGAAAUGUAGUUGACGAGGAGGAGGUUUAUCGAAUUUUCGGCGGAUGCCUCCAAA

Legend:
Settings in all cases: with glucosamine-6-phosphate
glucosamine-6-phosphate [1] = variants of: B1; assay: kcat; higher = faster cleavage; RNA array
Summary of the method: (§1)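 Weighted Michaelis–Menten fits across concentrations supplied kcat and KM, based on kobs from one- or two-exponential decay fits to normalised per-tile medians. The data came from barcoded ribozyme variants transcribed in situ by E. coli RNA polymerase on sequenced MiSeq chips and tracked at 37 °C by a hybridised Cy3 probe. Glucosamine-6-phosphate (40 μM to 10 mM) in HEPES/KCl/Mg(OAc)2 buffer was flowed in.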

glucosamine-6-phosphate [2] = variants of: B1; assay: self-cleavage kobs at 160 uM GlcN6P; higher = faster cleavage; RNA array
Summary of the method: as §1

glucosamine-6-phosphate [3] = variants of: B1; assay: self-cleavage kobs at 2500 uM GlcN6P; higher = faster cleavage; RNA array
Summary of the method: as §1

glucosamine-6-phosphate [4] = variants of: B1; assay: self-cleavage kobs at 10000 uM GlcN6P; higher = faster cleavage; RNA array
Summary of the method: as §1

glucosamine-6-phosphate [5] = variants of: B1; assay: self-cleavage kobs at 40 uM GlcN6P; higher = faster cleavage; RNA array
Summary of the method: as §1

glucosamine-6-phosphate [6] = variants of: B1; assay: self-cleavage kobs at 640 uM GlcN6P; higher = faster cleavage; RNA array
Summary of the method: as §1

glucosamine-6-phosphate [7] = variants of: B1; assay: KM; higher = weaker cofactor use; RNA array
Summary of the method: as §1

| Variant | kcat (glucosamine-6-phosphate [1]) [s⁻¹] | self-cleavage kobs at 160 uM GlcN6P (glucosamine-6-phosphate [2]) [s⁻¹] | self-cleavage kobs at 2500 uM GlcN6P (glucosamine-6-phosphate [3]) [s⁻¹] | self-cleavage kobs at 10000 uM GlcN6P (glucosamine-6-phosphate [4]) [s⁻¹] | self-cleavage kobs at 40 uM GlcN6P (glucosamine-6-phosphate [5]) [s⁻¹] | self-cleavage kobs at 640 uM GlcN6P (glucosamine-6-phosphate [6]) [s⁻¹] | KM (glucosamine-6-phosphate [7]) [µM] |
| --- | --- | --- | --- | --- | --- | --- | --- |
| A39C A64C | 4.47e-05 ± 2.7e-06 | < 1e-05 | 4.35e-05 ± 1.6e-05 | 4.27e-05 ± 1.3e-05 |  |  |  |
| A33G C71A | < 1e-05 | < 1e-05 |  | < 1e-05 | < 1e-05 |  |  |
| G7A G32A C50G | 4.21e-05 ± 1.3e-05 | 4.85e-05 ± 1.9e-05 | 6.89e-05 ± 2.8e-05 |  | 4.2e-05 ± 1.6e-05 |  |  |
| C50U U69G C70U | 5.07e-05 ± 2.4e-05 |  |  |  |  | 8.65e-05 ± 3.1e-05 |  |
| A14U G59U | < 1e-05 | < 1e-05 | < 1e-05 |  |  |  |  |
| A14G G29U | 0.00845 ± 0.0039 | 0.00105 ± 0.00022 | 0.00501 ± 0.0013 | 0.0131 ± 0.0033 | 0.000647 ± 0.00012 | 0.00497 ± 0.00096 |  |
| C8U C11U C34G A36U | 1.07e-05 ± 9.9e-07 | < 1e-05 |  |  |  |  |  |
| A12U U65G | 0.00705 ± 0.00071 | 0.000303 ± 6.4e-05 | 0.00239 ± 0.00046 | 0.00483 ± 0.00044 | 5.57e-05 ± 9.8e-06 | 0.000829 ± 0.00018 | 4650 ± 730 |
| A12U U57A | 0.00082 ± 0.00011 | 4.56e-05 ± 1.7e-05 | 0.000287 ± 5e-05 | 0.000604 ± 8.4e-05 |  | 0.000113 ± 2e-05 | 4040 ± 880 |
| U31C C71A | 0.000686 ± 0.00019 | 7.42e-05 ± 8.6e-06 | 0.000669 ± 9.6e-05 | 0.00057 ± 7.8e-05 | 3.6e-05 ± 1.1e-05 | 0.00018 ± 1.9e-05 | 1470 ± 630 |
| A53G G66U | 0.00201 ± 0.0004 | 0.000168 ± 3.4e-05 | 0.00179 ± 0.00022 | 0.00154 ± 0.00019 | 4.34e-05 ± 8.5e-06 | 0.00056 ± 7.9e-05 | 1650 ± 540 |
| G66A C67A | 0.00809 ± 0.0018 | 0.000708 ± 0.00012 | 0.00373 ± 0.00093 | 0.00873 ± 0.0016 | 0.000216 ± 3.4e-05 | 0.00222 ± 0.0004 | 1620 ± 470 |
| U56G U69C C70A | 6.04e-05 ± 1.7e-05 | 4.37e-05 ± 1.6e-05 | 6.56e-05 ± 1.5e-05 |  |  | 8.99e-05 ± 2.7e-05 |  |
| C68A C71U | 1.62e-05 ± 4.6e-06 |  | 2.17e-05 ± 9.8e-06 |  |  |  |  |
| U49A C68A | 1.25e-05 ± 6e-06 |  |  | < 1e-05 | < 1e-05 |  |  |
| G40U C58A | 0.000609 ± 4.4e-05 | < 1e-05 |  | 3.81e-05 ± 9.5e-06 | < 1e-05 |  |  |
| A42C G66U | 1.53e-05 ± 2e-06 |  |  |  |  |  |  |
| A14G A42C | 3.47e-05 ± 2.4e-06 |  | 1.97e-05 ± 9.6e-06 | 2.99e-05 ± 1e-05 |  |  | 1730 ± 410 |

| Variant | kcat (glucosamine-6-phosphate [1]) [s⁻¹] | self-cleavage kobs at 160 uM GlcN6P (glucosamine-6-phosphate [2]) [s⁻¹] | self-cleavage kobs at 2500 uM GlcN6P (glucosamine-6-phosphate [3]) [s⁻¹] | self-cleavage kobs at 10000 uM GlcN6P (glucosamine-6-phosphate [4]) [s⁻¹] | self-cleavage kobs at 40 uM GlcN6P (glucosamine-6-phosphate [5]) [s⁻¹] | self-cleavage kobs at 640 uM GlcN6P (glucosamine-6-phosphate [6]) [s⁻¹] | KM (glucosamine-6-phosphate [7]) [µM] |
| --- | --- | --- | --- | --- | --- | --- | --- |
| A6U C16G | 5.15e-05 ± 3.5e-06 |  | 2.28e-05 ± 1e-05 | 3.87e-05 ± 6.9e-06 |  |  | 3290 ± 720 |
| U30C C68U | 0.000128 ± 8.6e-06 |  | 9.82e-05 ± 1.1e-05 | 0.000111 ± 8.5e-06 |  | 4.07e-05 ± 6.8e-06 | 1210 ± 270 |
| U30A C67U | 0.00166 ± 0.00065 | 0.000105 ± 2.1e-05 | 0.00118 ± 0.00017 | 0.00106 ± 0.00034 | 5.62e-05 ± 1.2e-05 | 0.00036 ± 6.4e-05 |  |
| G13A G32C | 0.00056 ± 0.00021 |  | 0.000136 ± 1.8e-05 | 0.000388 ± 5.3e-05 |  | 6.56e-05 ± 8.7e-06 |  |
| C11G A33U U54G C67A C71U | 1.15e-05 ± 1.8e-06 |  |  |  |  |  |  |
| A14C C68G | 2.74e-05 ± 5.8e-06 |  |  | 2.58e-05 ± 8.4e-06 |  | 4.49e-05 ± 1.5e-05 |  |
| U31G A33C | 3.39e-05 ± 1.6e-06 |  |  | 2.4e-05 ± 8.6e-06 |  |  | 4180 ± 650 |
| A14G G32U | 0.00512 ± 0.001 | 0.000137 ± 1.8e-05 | 0.00158 ± 0.00017 | 0.00329 ± 0.0004 | 4.82e-05 ± 7.9e-06 | 0.000476 ± 5.1e-05 | 5710 ± 1400 |
| G32C C71G | 1.39e-05 ± 7.5e-07 |  |  |  |  |  | 86.6 ± 35 |
| U31G G40A | 0.00279 ± 0.00072 | 0.000269 ± 5.2e-05 | 0.0018 ± 0.00027 | 0.00301 ± 0.00099 | 0.00011 ± 2.4e-05 | 0.000715 ± 0.00014 | 1460 ± 560 |
| U54A C58G | 0.000169 ± 2.8e-05 |  | 7.4e-05 ± 2.3e-05 | 0.000123 ± 2.1e-05 | < 1e-05 |  | 3660 ± 1700 |
| U47A C58G | 0.000134 ± 1.1e-05 |  | 7.52e-05 ± 1.2e-05 | 0.000117 ± 1.5e-05 |  | 4.54e-05 ± 1.7e-05 | 1740 ± 440 |
| C11U A14U G38A C50U U65G | 2.42e-05 ± 9.7e-06 |  |  |  |  |  |  |
| C16A G59A | 1.02e-05 ± 3.6e-06 |  |  |  |  |  |  |
| U30C | 0.000469 ± 2.4e-05 | 4.18e-05 ± 1.9e-06 | 0.000759 ± 0.00027 | 0.000395 ± 6.5e-06 |  | 0.000113 ± 2e-06 | 1950 ± 180 |
| U30A A39U | 0.00467 ± 0.0022 | 0.000401 ± 8.1e-05 | 0.0022 ± 0.00046 | 0.00745 ± 0.0016 | 0.000191 ± 5.4e-05 | 0.00188 ± 0.00036 |  |
| G13A G59A | < 1e-05 |  |  |  |  |  |  |
